Results as given in the supplement of paper PMC10126150.
± gives the standard deviation of the averaged measurements.

System: ATP
Experiment: switch fluorescence ratio, 500 uM ATP over buffer (Cy3 cluster intensity, sum of 5 cycles each) (fold (ratio)); higher = stronger signal-on switching upon ATP binding; sequences stand for … in TCGTCGGCAGCGTCAGATGTGTATAAGAGACAGTTTTTTTTTTTTTTTTTTTTTTTTT…TC
Settings: aptamer strand: ATP DNA aptamer (quencher-CACCTGGGGGAGTATTGCGGAGGAAGG + anchor), 100 nM annealed; ATP concentration: 500 uM
Method in brief: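 The fluorescence ratio divides summed target-cycle Cy3 intensity by summed buffer-cycle Cy3 intensity for each cluster and is averaged per switch-domain sequence. Cy3-labelled switching-strand clusters on a modified Illumina MiSeq flow-cell were annealed to 100 nM quencher-labelled ATP aptamer, then imaged in selection buffer and again after 15 min with 500 uM ATP at 22 °C. Five such cycles were run, with NaOH stripping and re-annealing between them, and clusters outside 100-1000 RFU were excluded.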
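Also: ATP exposure 15 min at 22 °C before imaging.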

GCACTTGTAA
switch fluorescence ratio: 1.005 ± 0.0056

GCAGAATGGG
switch fluorescence ratio: 1.08 ± 0.12

GCAGAGGGGT
switch fluorescence ratio: 1.04 ± 0.066

GCAGATAGGG
switch fluorescence ratio: 0.998 ± 0.016

GCAGCCGTGT
switch fluorescence ratio: 1.03 ± 0.04

GCAGCGGGGG
switch fluorescence ratio: 1.01 ± 0.027

GCAGCTTTTA
switch fluorescence ratio: 1.09 ± 0.018

GCAGGAGATT
switch fluorescence ratio: 1.01 ± 0.032

GCAGGAGTAG
switch fluorescence ratio: 1.01 ± 0.038

GCAGGCCCGA
switch fluorescence ratio: 1.009 ± 0.0034

GCAGGCTTGG
switch fluorescence ratio: 1.012 ± 0.0061

GCAGGGGGTG
switch fluorescence ratio: 1.11 ± 0.076

GCAGGTAGGG
switch fluorescence ratio: 0.998 ± 0.039

GCAGGTCTGT
switch fluorescence ratio: 0.9688 ± 0.0037

GCAGGTGAGG
switch fluorescence ratio: 1.18 ± 0.044

GCAGGTGGAG
switch fluorescence ratio: 1.02 ± 0.06

GCAGGTGGCG
switch fluorescence ratio: 1.01 ± 0.044

GCAGGTTCGG
switch fluorescence ratio: 1.01 ± 0.037

GCAGGTTGGT
switch fluorescence ratio: 1.036 ± 0.0042

GCAGTAGTTG
switch fluorescence ratio: 1.01 ± 0.026

GCAGTATGAG
switch fluorescence ratio: 0.99 ± 0.021

GCAGTATTTT
switch fluorescence ratio: 1.0075 ± 0.00081

GCAGTCTGGT
switch fluorescence ratio: 0.98106 ± 0.00091

GCAGTCTTTG
switch fluorescence ratio: 0.9936 ± 0.0046

GCAGTGTGCT
switch fluorescence ratio: 0.982 ± 0.031

GCAGTTTGGA
switch fluorescence ratio: 0.989 ± 0.015

GCAGTTTGGT
switch fluorescence ratio: 0.9978 ± 0.0039

GCAGTTTTA
switch fluorescence ratio: 1 ± 0.014

GCATAAAGGG
switch fluorescence ratio: 0.989 ± 0.019

GCATAATTTT
switch fluorescence ratio: 1.01 ± 0.028

GCATACAGGA
switch fluorescence ratio: 1.02 ± 0.024

GCATATTAGG
switch fluorescence ratio: 0.999 ± 0.03

GCATCCGTCG
switch fluorescence ratio: 1.04 ± 0.031

GCATGATTTA
switch fluorescence ratio: 1 ± 0.051

GCATGCTTAA
switch fluorescence ratio: 0.9876 ± 0.006

GCATGGGCAG
switch fluorescence ratio: 0.999 ± 0.023

GCATGGGTAC
switch fluorescence ratio: 1.05 ± 0.018

GCATGGTGAC
switch fluorescence ratio: 1.058 ± 0.0028

GCATGGTTAA
switch fluorescence ratio: 1.019 ± 0.0023

GCATGGTTAT
switch fluorescence ratio: 0.993 ± 0.036

GCATGTCGTT
switch fluorescence ratio: 1.001 ± 0.0047

GCATGTTAGG
switch fluorescence ratio: 1.01 ± 0.063

GCATTAGGGT
switch fluorescence ratio: 1.02 ± 0.014

GCATTATCTA
switch fluorescence ratio: 1.01 ± 0.07

GCATTATTGG
switch fluorescence ratio: 0.998 ± 0.016

GCATTCAATG
switch fluorescence ratio: 1.01 ± 0.024

GCATTCGATG
switch fluorescence ratio: 0.981 ± 0.013

GCATTTAAGT
switch fluorescence ratio: 0.993 ± 0.06

GCATTTGATG
switch fluorescence ratio: 1.0205 ± 0.00084

GCATTTTAGG
switch fluorescence ratio: 0.967 ± 0.045

GCATTTTATT
switch fluorescence ratio: 0.9938 ± 0.0026

GCCAACGCTG
switch fluorescence ratio: 1.1 ± 0.046

GCCAATGATC
switch fluorescence ratio: 1.01 ± 0.073

GCCAGAGAGT
switch fluorescence ratio: 1.01 ± 0.012

GCCAGCATAT
switch fluorescence ratio: 1.153 ± 0.0062

GCCAGGATTG
switch fluorescence ratio: 1.02 ± 0.013

GCCAGGCTGG
switch fluorescence ratio: 1.04 ± 0.021

GCCAGGGAGG
switch fluorescence ratio: 1.03 ± 0.026

GCCAGTCTGG
switch fluorescence ratio: 0.987 ± 0.025

GCCAGTGTTT
switch fluorescence ratio: 1.02 ± 0.056

GCCATAATAT
switch fluorescence ratio: 1.01 ± 0.023

GCCATAGCTG
switch fluorescence ratio: 1.007 ± 0.0029

GCCATATTTC
switch fluorescence ratio: 0.998 ± 0.041

GCCATCCTGC
switch fluorescence ratio: 1.05 ± 0.042

GCCATGGACA
switch fluorescence ratio: 0.9847 ± 0.00086

GCCATTGTTG
switch fluorescence ratio: 0.998 ± 0.018

GCCATTTTGA
switch fluorescence ratio: 0.956 ± 0.037

GCCCAAGGA
switch fluorescence ratio: 1.028 ± 0.0062

GCCCATGAGT
switch fluorescence ratio: 1.01 ± 0.011

GCCCCCCACA
switch fluorescence ratio: 1.1 ± 0.048

GCCCGCAGAA
switch fluorescence ratio: 1.76 ± 0.024

GCCCGCCCGC
switch fluorescence ratio: 1.38 ± 0.18

GCCCGCTAAT
switch fluorescence ratio: 2.25 ± 0.052

GCCCGGGAGC
switch fluorescence ratio: 1 ± 0.037

GCCCGGGGAC
switch fluorescence ratio: 1.18 ± 0.12

GCCCTGGAAC
switch fluorescence ratio: 1.01 ± 0.022

GCCCTGGTGT
switch fluorescence ratio: 5.93 ± 0.54

GCCGAAGCTG
switch fluorescence ratio: 1.08 ± 0.003

GCCGAGTTTC
switch fluorescence ratio: 1.02 ± 0.014

GCCGCCTGAT
switch fluorescence ratio: 0.986 ± 0.021

GCCGCGTGCG
switch fluorescence ratio: 1.06 ± 0.024

GCCGCTGGGA
switch fluorescence ratio: 1.01 ± 0.022

GCCGCTGTCG
switch fluorescence ratio: 0.963 ± 0.045

GCCGGAAAGG
switch fluorescence ratio: 0.9857 ± 0.0075

GCCGGAGTTA
switch fluorescence ratio: 1.06 ± 0.017

GCCGGATTGC
switch fluorescence ratio: 1.07 ± 0.033

GCCGGGACCG
switch fluorescence ratio: 1.024 ± 0.01

GCCGGGACGG
switch fluorescence ratio: 0.965 ± 0.022

GCCGGGATGC
switch fluorescence ratio: 1.1 ± 0.11

GCCGGGGGTA
switch fluorescence ratio: 1.04 ± 0.079

GCCGGGTCCG
switch fluorescence ratio: 0.9938 ± 0.0011

GCCGGTCTGT
switch fluorescence ratio: 1.01 ± 0.03

GCCGGTGGAT
switch fluorescence ratio: 0.9793 ± 0.0084

GCCGGTGTTT
switch fluorescence ratio: 1.02 ± 0.036

GCCGTAAGGA
switch fluorescence ratio: 1.06 ± 0.033

GCCGTAGCTC
switch fluorescence ratio: 1.2 ± 0.078

GCCGTAGTAA
switch fluorescence ratio: 1.68 ± 0.011

GCCGTATGG
switch fluorescence ratio: 0.997 ± 0.012

GCCGTCGGCA
switch fluorescence ratio: 1 ± 0.017

GCCGTCTGCG
switch fluorescence ratio: 0.957 ± 0.011

GCCGTGAGAG
switch fluorescence ratio: 0.9842 ± 0.0013

GCCGTGGAGA
switch fluorescence ratio: 1.03 ± 0.021

GCCGTTAGCG
switch fluorescence ratio: 1.02 ± 0.049

GCCGTTGGAA
switch fluorescence ratio: 1.01 ± 0.024

GCCGTTTTAC
switch fluorescence ratio: 1.17 ± 0.05

GCCTAAAGTT
switch fluorescence ratio: 0.988 ± 0.015

GCCTAGGCGG
switch fluorescence ratio: 1.01 ± 0.062

GCCTCACCCG
switch fluorescence ratio: 1.26 ± 0.016

GCCTCTATTT
switch fluorescence ratio: 0.968 ± 0.019

GCCTGCGGGG
switch fluorescence ratio: 1.04 ± 0.046

GCCTGTTGCA
switch fluorescence ratio: 0.9709 ± 0.0037

GCCTTAATCT
switch fluorescence ratio: 1.01 ± 0.038

GCCTTAGCTC
switch fluorescence ratio: 1.04 ± 0.015

GCCTTCATGG
switch fluorescence ratio: 0.98 ± 0.044

GCCTTCCCGG
switch fluorescence ratio: 1.9 ± 0.08

GCCTTCCGTT
switch fluorescence ratio: 1.39 ± 0.49

GCCTTCGACT
switch fluorescence ratio: 1.051 ± 0.0017

GCCTTGGACT
switch fluorescence ratio: 0.976 ± 0.027

GCCTTGTATG
switch fluorescence ratio: 0.976 ± 0.03

GCCTTTGCAT
switch fluorescence ratio: 1.04 ± 0.039

GCCTTTTCGA
switch fluorescence ratio: 0.9827 ± 0.0025

GCCTTTTGCC
switch fluorescence ratio: 1.044 ± 0.0094

GCGAAAAAAG
switch fluorescence ratio: 0.99907 ± 0.00052

GCGAAAAACG
switch fluorescence ratio: 1.03 ± 0.056

GCGAAAGGAA
switch fluorescence ratio: 1.12 ± 0.14

GCGAAAGGCT
switch fluorescence ratio: 1.03 ± 0.024

GCGAAAGTCG
switch fluorescence ratio: 1.018 ± 0.0069

GCGAAATTAA
switch fluorescence ratio: 0.997 ± 0.018

GCGAACAACT
switch fluorescence ratio: 1.014 ± 0.0087

GCGAAGGGGT
switch fluorescence ratio: 1.02 ± 0.031

GCGAATAAGT
switch fluorescence ratio: 1.02 ± 0.031

GCGAATATCC
switch fluorescence ratio: 1.11 ± 0.017

GCGACAAAAT
switch fluorescence ratio: 1.11 ± 0.047

GCGAGAATAG
switch fluorescence ratio: 1 ± 0.014

GCGAGCAATG
switch fluorescence ratio: 1.03 ± 0.027

GCGAGCCTCC
switch fluorescence ratio: 1.3 ± 0.052

GCGAGGAGTA
switch fluorescence ratio: 1.01 ± 0.024

GCGAGGCCGT
switch fluorescence ratio: 1 ± 0.056

GCGAGGGAGT
switch fluorescence ratio: 1.02 ± 0.037

GCGAGGGGTT
switch fluorescence ratio: 0.969 ± 0.035

GCGAGGGTCG
switch fluorescence ratio: 1.01 ± 0.043

GCGAGGTAGG
switch fluorescence ratio: 0.9669 ± 0.0043

GCGAGGTCGG
switch fluorescence ratio: 1.03 ± 0.07

GCGAGGTGGG
switch fluorescence ratio: 0.999 ± 0.049

GCGATAGACG
switch fluorescence ratio: 0.99 ± 0.022

GCGATCGGTT
switch fluorescence ratio: 1.01 ± 0.049

GCGATGGGTC
switch fluorescence ratio: 1.06 ± 0.0091

GCGATTAAAG
switch fluorescence ratio: 1 ± 0.014

GCGATTTGTG
switch fluorescence ratio: 1.01 ± 0.037

GCGCAAATCG
switch fluorescence ratio: 1.009 ± 0.01

GCGCAAATTT
switch fluorescence ratio: 0.999 ± 0.017

GCGCACCTTT
switch fluorescence ratio: 1.01 ± 0.029

GCGCATGGTA
switch fluorescence ratio: 1.02 ± 0.026
